# Results taken from the nanobody polyreactivity screen of Harvey et al. (2022).
# Assay: yeast display, Sf9 membrane polyspecificity reagent, FACS + sequencing; frameworks hold sequencing errors
# How it was run: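 Nanobodies from a synthetic yeast display library (Saccharomyces cerevisiae BJ5465), induced 36–48 hours with galactose, were stained 1 hour at 4 °C with 10% biotinylated, detergent-solubilized Sf9 membrane reagent, enriched on streptavidin microbeads, then FACS-sorted. Anti-HA (expression) and streptavidin (reagent binding) fluorescence set low and high (top ~1%) gates. Polyreactivity labels come from the gate of origin. Genes were colony-PCR amplified, MiSeq 2 × 250 sequenced and filtered by CDR length.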
row,Sequence,polyreactivity (PSR sort gate)
1,QVQLVESGGGLVQAGGSLRLSCAASGFIIDANTMGWYRQAPGKERELVAAINESGGSTYYADSVKGRFTISRDNAKNTVYLQMNSLKPEDTAVYYCAADPTWDYGWSGYPYYYYWGQGTQVTVSS,high polyreactivity
2,QVQLVESGGGLVQAGGSLRLSCAASGFIIEVNAMGWYRQAPGKERELVARIDWSGGSTYYADSVKWRFTISRDNAKNTVYLQMNILKPEYTEVYYCNAEWTYADPNEYGYWGQGTLVTVSS,low polyreactivity
3,QVQLVESGGGLVQAGGSLRLSCAASGFIIFRYAMGWYRQAPGKERELDAAITRSGGSTYYADSVKGRFTISRDNAKNSVYLQMNCLKPEDTAVYYCNASRQCFTYARMDYWGQGTQVTVSS,high polyreactivity
4,QVQLVESGGGLVQAGGSLRLSCAASGFIIGRNVMGWYRQAPGKERELVAAISYSGGSTYYADSVKGRFTISRDNAKNTVYLQMNSLKPEDTAVYYCNAEAWVSQDWCQWVAYDYWGQGTQVTVSS,high polyreactivity
5,QVQLVESGGGLVQAGGSLRLSCAASGFIIGWYVMGWYRQAPGKERELVAAITWDSTSTYYADSVKGRFTISRDNAKNTVYLQMNSLKPEDTAVYYCAADRLDRYYYWGEGTQVTVSS,low polyreactivity
6,QVQLVESGGGLVQAGGSLRLSCAASGFIIKFYAMGWYRPAPGKERELVAAISWRGGSTYYADSVKGRFTISRDIAKNTVYLQMNSLKPEDTAVYYCNKAGKARYWGRYNYWGQGTQVTVSS,high polyreactivity
7,QVQLVESGGGLVQAGGSLRLSCAASGFIIRRYAMGWYRPAPGKERELVARISFRGGSTYYADSVKGRFTISRDNAKNTVYLQMNSLKPEATAVYYCNRDPLYSKVVDGDYWGHGTQVTVSS,high polyreactivity
8,QVQLVESGGGLVQAGGSLRLSCAASGFIIRSYAMGWYRQAPVKERELVAAISRGSRTYYADSVKGRFTISRDNAKNTVYLQMNSLKPEDTAVYYCNADPNVPVETFDYWGQGTQVTVSS,high polyreactivity
9,QVQLVESGGGLVQAGGSLRLSCAASGFIITSYAMGWYRQAPGKERELVAAIRRTGGTYYADSVKGRFTISRDNAKNTVYLQMNSLKPEDTAVYYCNTRLSYRNRGFDYWGQGTQVTVSS,high polyreactivity
10,QVQLVESGGGLVQAGGSLRLSCAASGFIIYTYAMGWYRQAPGKERELVAAISRGGRTNYADSVKGRFTISRDNAKNTVYLQMNSLKPEDTAVYYCASSYSHRYDYWGQGSQVTVSS,high polyreactivity
11,QVQLVESGGGLVQAGGSLRLSCAASGFIIYYYAMGWYRQAPGKERELVARISRRGGSTYYADSVKGRFTISRDNAKNTVYLQMNSLKPEDTAVYYCNAERRYSWYSQGDYWGQGTQVSVSS,high polyreactivity
12,QVQLVESGGGLVQAGGSLRLSCAASGFILARNAMGWYRQAPGKERELVAAITRRGGSTYYADSVKGRFTISRDNAKNTVYLQMNSLKPEDTAVYYCAAAAGPIPQERYYWGQGTHVTVSS,high polyreactivity
13,QVQLVESGGGLVQAGGSLRLSCAASGFILAWYAMGWYRQAPGKERELVAAISTSGDSTYYADSVKGRFTISRDNAKNTVYLQMNSLKPEDTAVYYCAAGTFKPYWRKFEYWGQGTQVTLSS,high polyreactivity
14,QVQLVESGGGLVQAGGSLRLSCAASGFILDTYGMGWYRQAPGKERELVAAISQSDVSTYYADSVKGRFTISRDNAKNTVYLQMNSLKQEDTAVYYCAADRGGLRWFWQVVYDYWGQGTQVTVSS,low polyreactivity
15,QVQLVESGGGLVQAGGSLRLSCAASGFILEAYAMGWYRQAPGKERELVAAITRRGTRTYYADSVKGRFTLSRDNAKNTVYLQMNSLKPEDTAVYYCNAESRSTWVAGYDYWGQGTQVTVSS,high polyreactivity
16,QVQLVESGGGLVQAGGSLRLSCAASGFILEGYAMGWYRQAPGKERELVAAITRRGTRTYYADSVKGRFTISRDNAKNTVYLQMNSLKPEDTAVFYCNAESRSTWVAGYDYWGQGTQVTVSS,high polyreactivity
17,QVQLVESGGGLVQAGGSLRLSCAASGFILGGYAMGWYRQAPGKERELVAAISWSSGSTYYADSVKGRFTISRDNAKTTVYLQLNSLKPEDTAVYYCAAVGAYDYWGQGTQVTVSS,low polyreactivity
